Test results taken from the supplement of paper PMC10567573.

B1: KRT13 (parent)
chain: KTIEELRDKILTATIENNRVILEI
B2: KLHL14 (parent)
chain: YVIGGRNETGYLSSVECYNLETNE

Variants of: B1
Assay: protein stability index of a GFP-peptide fusion (GPS, HEK-293T) (PSI 1-6); higher = more stable
Conditions: c terminus: a fixed tail appended
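Further: lentivirally expressed fusions sorted by FACS into six bins by GFP to DsRed ratio, PSI derived from sequencing read proportions per bin multiplied by bin number.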

Protein stability index, by site and new letter:
E16: F 3.08
D8: Q 1.67 | P 2.46 | L 1.77 | S 2.79 | K 2.66 | I 1.64 | M 3.19 | Y 2.14 | F 2.81 | A 2.49
I15: P 2.17 | T 2.6 | A 1.66 | K 3.7 | S 2.17 | Q 2.07 | F 1.08 | L 2.31 | D 1.75 | G 2.77 | E 1.69 | N 2.98
T12: P 2.42 | V 3.5 | D 1.76 | H 2.66 | Q 2.65 | A 2.5 | R 1.88 | I 3.39 | N 2.83 | Y 3.8 | G 1.59
K9: N 2.29 | F 2.7 | S 1.99 | P 2.84 | E 2.7 | L 2.37 | G 2.21 | A 1.85 | T 2.35 | V 2.86 | C 3.32 | D 2.24
K1: C 1.99 | P 1.24 | I 2.74 | A 3.63 | S 3.17 | E 2.38 | N 2.48 | T 2.34 | M 1.88 | Y 2.36 | W 3.79 | F 3.36 | H 2.09 | R 1.6 | D 2.31

Variants of: B2
Assay: as above
Conditions: c terminus: a fixed tail appended

Protein stability index, by site and new letter:
E21: N 1.55 | H 1.63 | G 2.19 | K 2.26 | Q 2.39 | A 2.66 | C 2.61 | T 1.68 | M 1.74 | I 2.05 | F 2.62 | W 3.54 | P 1.93 | Y 2.17 | L 1.67 | D 1.8 | R 1.91 | V 1.54 | S 2.29
N19: R 1.49 | P 2.1 | T 2.17 | M 1.8 | K 2.13 | Y 1.76 | W 2.77 | Q 2 | L 2.08 | V 1.66 | S 1.83
N23: D 2.75 | V 2.17 | K 1.96 | G 1.74 | R 1.92 | F 1.88 | L 1.66 | S 1.86 | A 2.06 | M 1.89 | P 1.75 | Y 1.75 | E 2.67 | I 1.56 | W 1.74 | H 1.86 | T 2.15 | C 2.45 | Q 3.14
L20: Q 2.48 | Y 2.02 | S 2.18 | M 1.96 | T 2.36 | P 1.83 | W 1.55 | N 2.79 | H 2.34 | A 2.12 | E 3.04 | D 2.79 | K 2.09 | I 2.21 | F 1.98 | C 2.09 | V 1.78 | G 1.82 | R 2.39
T22: I 1.84 | R 2.62 | C 1.79 | S 1.4 | L 2.1 | A 2 | Y 2.06 | N 1.63 | D 2.07 | F 1.54 | G 1.86 | K 2.2 | W 1.53 | M 1.49 | P 1.76 | Q 1.94 | E 2.84 | H 2.54 | V 2.6
E24: F 1.95 | N 1.99 | G 1.69 | V 1.96 | T 1.63 | A 1.64 | S 2.07 | P 1.72 | Y 2.08 | M 1.71 | Q 1.49 | K 1.75 | H 1.8 | I 2.19 | D 2.14 | L 2.27 | R 2.17 | C 1.96 | W 1.67
